Data from PMC9436119, “Alkaline ceramidase catalyzes the hydrolysis of ceramides via a catalytic mechanism shared by Zn^2+-dependent amidases” (PLoS ONE, 2022).
One block for each molecule: values may come before it.

Columns and labels:
[1] = molecular target: T1, alkaline ceramidase 3 (ACER3) (Homo sapiens, UniProt Q9NUN7); experiment: microsomal ceramidase activity assay with NBD-C12-PHC, HPLC fluorescence; Lineweaver-Burk kinetics; assay type: biochemical
T1 sequence (Q9NUN7 1-267): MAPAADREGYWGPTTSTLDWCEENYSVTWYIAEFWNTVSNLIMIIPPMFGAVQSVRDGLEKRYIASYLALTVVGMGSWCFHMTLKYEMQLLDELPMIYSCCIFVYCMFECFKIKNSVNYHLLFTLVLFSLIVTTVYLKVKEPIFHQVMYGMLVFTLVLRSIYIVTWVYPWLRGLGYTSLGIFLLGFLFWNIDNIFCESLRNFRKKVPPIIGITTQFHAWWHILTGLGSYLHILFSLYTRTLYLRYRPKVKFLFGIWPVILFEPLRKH

[2] = substrate: CCCCCCCCCCCCCC[C@@H](O)[C@@H](O)[C@H](CO)NC(=O)CCCCCCCCCCCNc1ccc([N+](=O)[O-])c2nonc12; experiment: cells, lysate or membranes; assay type: biochemical, Homo sapiens
[3] = substrate: CCCCCCCCCCCCCC[C@@H](O)[C@@H](O)[C@H](CO)NC(=O)CCCCCCCCCCCNc1ccc([N+](=O)[O-])c2nonc12; experiment: Michaelis-Menten kinetics (KM), microsomal assay with HPLC fluorescence; assay type: biochemical, Homo sapiens; conditions: Zn2+ (Ca2+ in buffer) Zn2+ active site

IC50 [1]: 71.4 µM
Molecule: CC(/C=C/C(=O)NO)=C\[C@@H](C)C(=O)c1ccc(N(C)C)cc1 [TSA, Trichostatin A]

B1: alkaline ceramidase 3 (ACER3) (Homo sapiens) (protein)
chain: MAPAADREGYWGPTTSTLDWCEENYSVTWYIAEFWNTVSNLIMIIPPMFGAVQSVRDGLEKRYIASYLALTVVGMGSWCFHMTLKYEMQLLDELPMIYSCCIFVYCMFECFKIKNSVNYHLLFTLVLFSLIVTTVYLKVKEPIFHQVMYGMLVFTLVLRSIYIVTWVYPWLRGLGYTSLGIFLLGFLFWNIDNIFCESLRNFRKKVPPIIGITTQFHAWWHILTGLGSYLHILFSLYTRTLYLRYRPKVKFLFGIWPVILFEPLRKH
notes: FLAG-tagged open reading frame of wild-type ACER3, in microsomes of yeast Δypc1Δydc1 cells
Km ([2]; Zn2+ (Ca2+ in buffer) Zn2+ active site (His81, His217, His221, Asp92, Ser77)): 15.48 ± 1.248 µM

B2: alkaline ceramidase 3 (ACER3) (Homo sapiens; S77C) (protein)
chain: MAPAADREGYWGPTTSTLDWCEENYSVTWYIAEFWNTVSNLIMIIPPMFGAVQSVRDGLEKRYIASYLALTVVGMGCWCFHMTLKYEMQLLDELPMIYSCCIFVYCMFECFKIKNSVNYHLLFTLVLFSLIVTTVYLKVKEPIFHQVMYGMLVFTLVLRSIYIVTWVYPWLRGLGYTSLGIFLLGFLFWNIDNIFCESLRNFRKKVPPIIGITTQFHAWWHILTGLGSYLHILFSLYTRTLYLRYRPKVKFLFGIWPVILFEPLRKH
notes: FLAG-tagged ACER3 S77C, in microsomes of yeast Δypc1Δydc1 cells
Km ([2]; Zn2+ (Ca2+ in buffer) Zn2+ active site): 66.43 ± 6.143 µM

B3: alkaline ceramidase 3 (ACER3) (Homo sapiens; S77A) (protein)
chain: MAPAADREGYWGPTTSTLDWCEENYSVTWYIAEFWNTVSNLIMIIPPMFGAVQSVRDGLEKRYIASYLALTVVGMGAWCFHMTLKYEMQLLDELPMIYSCCIFVYCMFECFKIKNSVNYHLLFTLVLFSLIVTTVYLKVKEPIFHQVMYGMLVFTLVLRSIYIVTWVYPWLRGLGYTSLGIFLLGFLFWNIDNIFCESLRNFRKKVPPIIGITTQFHAWWHILTGLGSYLHILFSLYTRTLYLRYRPKVKFLFGIWPVILFEPLRKH
notes: FLAG-tagged ACER3 S77A, in microsomes of yeast Δypc1Δydc1 cells
Km [3]: 38 µM
